The values below come from US20150344580A1 (MSM PROTEIN TECHNOLOGIES, published 2015).

In one assay the target is T1, human CCR6 (human, UniProt P51684 1-374).
T1 construct: whole, on cells; CHO cells; also called CCR6 (human)
T1 sequence (looked up): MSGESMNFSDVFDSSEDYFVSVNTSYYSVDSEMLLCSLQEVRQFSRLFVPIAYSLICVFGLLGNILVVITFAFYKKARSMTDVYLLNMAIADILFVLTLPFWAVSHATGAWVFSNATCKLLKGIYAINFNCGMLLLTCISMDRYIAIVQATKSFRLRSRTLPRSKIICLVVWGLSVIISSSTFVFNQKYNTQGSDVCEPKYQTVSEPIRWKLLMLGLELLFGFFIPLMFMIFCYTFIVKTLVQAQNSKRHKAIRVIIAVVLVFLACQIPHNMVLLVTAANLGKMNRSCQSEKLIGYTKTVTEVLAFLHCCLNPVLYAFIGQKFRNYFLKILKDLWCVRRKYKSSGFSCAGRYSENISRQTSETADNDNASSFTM
Description: FACS, CHO-human CCR6 cells. How it is done:
(§1) In more details, the cell staining procedure was: 5000-1000 cell suspension in 10 μl FACS buffer (1×PBS, 2.0% FBS, 0.2% sodium azide) was mixed with 10 μl of 200 nM the corresponding anti-CCR7 MAB and incubated on ice for 30 min. Washing step—after the incubation 150 μl of FACS buffer was added to the cell sample, the samples were mixed gently by up-down pipetting the cell suspension. Then the samples were centrifuged at 1100 rpm for 5 minutes, and supernatants were removed. Washing step was repeated ones. Then 10 μl of anti-human PE-(Fab)2 form Jackson Immuno Research Lab. #709-116-098 diluted 40 times in FACS buffer were added to the cells and the cells were re-suspended by up-down pipetting. After 20 min. incubation on ice in dark the washing step was repeated twice. The washed cells were mixed with 100 μl of FIX buffer (0.5% Paraformaldehyde solution in PBS). Fixed samples were stored in dark on ice and analyzed by FACS on Guava PCA-96 flow cytometer. The fluorescent signals collected from individual cells were obtained using fluorescence Activated Cell Sorter (FACS).

The target in the next assay is T2, mouse CCR6 (mouse, UniProt O54689 1-367).
T2 construct: whole, on cells; CHO cells; also called CCR6 (mouse)
T2 sequence (looked up): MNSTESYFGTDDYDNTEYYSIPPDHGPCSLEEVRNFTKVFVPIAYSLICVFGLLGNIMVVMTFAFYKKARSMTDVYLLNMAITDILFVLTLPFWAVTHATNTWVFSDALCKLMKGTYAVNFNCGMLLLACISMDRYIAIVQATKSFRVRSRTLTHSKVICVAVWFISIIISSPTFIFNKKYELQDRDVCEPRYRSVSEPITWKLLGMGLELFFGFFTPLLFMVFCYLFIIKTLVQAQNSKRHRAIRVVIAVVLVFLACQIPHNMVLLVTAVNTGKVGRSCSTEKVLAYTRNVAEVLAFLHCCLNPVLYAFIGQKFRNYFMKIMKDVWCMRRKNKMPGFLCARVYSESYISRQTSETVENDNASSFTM
Description: FACS, CHO-mouse CCR6 cells. On the procedure: as §1

In the next assay the target is T3, human CCR5 (human, UniProt P51681 1-352).
T3 construct: whole, on cells; CHO cells
T3 sequence (P51681 whole entry): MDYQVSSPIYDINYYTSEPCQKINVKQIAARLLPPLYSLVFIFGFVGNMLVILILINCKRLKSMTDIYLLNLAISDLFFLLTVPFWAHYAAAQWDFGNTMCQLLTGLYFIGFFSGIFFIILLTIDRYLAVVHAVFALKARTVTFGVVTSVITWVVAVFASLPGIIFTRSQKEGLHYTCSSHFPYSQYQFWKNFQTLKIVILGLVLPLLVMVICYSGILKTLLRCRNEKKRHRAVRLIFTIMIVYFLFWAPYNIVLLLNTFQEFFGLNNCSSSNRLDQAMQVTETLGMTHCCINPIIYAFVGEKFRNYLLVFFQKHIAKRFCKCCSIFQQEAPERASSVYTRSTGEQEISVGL
Description: FACS, CHO-human CCR5 cells. How it is done: as §1

For the next assay, the target named is T4, cyno CXCR3 (cynomolgus monkey, UniProt A0A2K5UV19 1-368).
T4 construct: whole, on cells; CHO cells
T4 sequence: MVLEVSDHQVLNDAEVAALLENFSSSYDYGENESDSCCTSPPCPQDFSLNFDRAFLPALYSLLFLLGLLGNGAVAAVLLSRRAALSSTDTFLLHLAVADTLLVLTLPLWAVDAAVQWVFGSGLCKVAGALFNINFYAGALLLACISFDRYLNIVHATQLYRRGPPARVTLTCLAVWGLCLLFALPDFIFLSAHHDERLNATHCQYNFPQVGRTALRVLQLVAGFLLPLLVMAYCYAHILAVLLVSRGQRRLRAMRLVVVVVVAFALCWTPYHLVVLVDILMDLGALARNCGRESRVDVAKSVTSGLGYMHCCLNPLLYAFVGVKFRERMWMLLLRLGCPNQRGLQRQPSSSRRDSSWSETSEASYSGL
Description: FACS, CHO-cyno CXCR3 cells. How it is done:
as §1
(In general: In flow cytometry, cells or beads pass a laser one at a time.)

The target of the next assay is T5, human CCR4 (human, UniProt P51679 1-360).
T5 construct: whole, on cells; CHO cells
T5 sequence (looked up): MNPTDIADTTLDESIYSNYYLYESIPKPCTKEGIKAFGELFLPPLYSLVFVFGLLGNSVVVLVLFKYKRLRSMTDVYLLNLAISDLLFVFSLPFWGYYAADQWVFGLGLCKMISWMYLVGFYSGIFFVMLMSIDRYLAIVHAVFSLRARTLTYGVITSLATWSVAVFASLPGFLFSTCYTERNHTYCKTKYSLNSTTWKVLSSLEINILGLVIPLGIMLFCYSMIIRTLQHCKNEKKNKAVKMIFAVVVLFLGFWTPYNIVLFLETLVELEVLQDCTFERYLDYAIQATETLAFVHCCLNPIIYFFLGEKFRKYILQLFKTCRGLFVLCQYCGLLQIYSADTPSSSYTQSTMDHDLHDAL
The assay can be described thus: FACS, CHO-human CCR4 cells. On the procedure: as §1, with “Washing” for “In more details, the cell staining procedure was: 5000-1000 cell suspension in 10 μl FACS buffer (1×PBS, 2.0% FBS, 0.2% sodium azide) was mixed with 10 μl of 200 nM the corresponding anti-CCR7 MAB and incubated on ice for 30 min. Washing”, “cytometer.” for “cytometer. The fluorescent signals collected from individual cells were obtained using fluorescence Activated Cell Sorter (FACS).”
In more details, the cell staining procedure was: […] cell suspension in 10 μl FACS buffer (1×PBS, 2.0% FBS, 0.2% sodium azide) was mixed with 10 μl of 200 nM the corresponding anti-CCR7 MAB and incubated on ice for 30 min. Washing step—after the incubation 150 μl of FACS buffer was added to the cell sample, the samples were mixed gently by up-down pipetting the cell suspension. […] Fixed samples were stored in dark on ice and analyzed by FACS on Guava PCA-96 flow cytometer. The fluorescent signals collected from individual cells were obtained using fluorescence Activated Cell Sorter (FACS).

A further assay deals with T6, human CCR3 (human, UniProt P51677 1-355).
T6 construct: whole, on cells; CHO cells
T6 sequence (looked up): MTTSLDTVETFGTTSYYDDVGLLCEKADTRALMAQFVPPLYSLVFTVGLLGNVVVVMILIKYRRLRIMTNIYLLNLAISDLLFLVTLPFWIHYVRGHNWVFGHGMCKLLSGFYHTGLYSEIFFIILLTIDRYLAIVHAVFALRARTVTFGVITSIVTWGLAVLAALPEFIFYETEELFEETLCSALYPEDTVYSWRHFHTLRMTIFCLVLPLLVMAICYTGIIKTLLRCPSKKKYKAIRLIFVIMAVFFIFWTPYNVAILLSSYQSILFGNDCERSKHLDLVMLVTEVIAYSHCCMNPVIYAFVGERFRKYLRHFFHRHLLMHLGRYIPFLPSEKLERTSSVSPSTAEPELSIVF
Description: FACS, CHO-human CCR3 cells. On the procedure: as §1

B1: MSM-R710 (fully human anti-human CCR7 antibody, IgG1) (antibody, V domains shown)
VH: EVQLLESGGGLVQPGGSLRLSCAASGFTFSNYTMHWVRQAPGKGLEWVSGIGPRSGRTYYADSVKGRFTISRDNSKNTLYLQMNSLRAEDTAVYYCARSYAYQYRGFDYWGQGTLVTVSS
VL: EIVLTQSPGTLSLSPGERATLSCRASQSVSSSYLAWYQQKPGQAPRLLIYGASSRATGIPDRFSGSGSGTDFTLTISRLEPEDFAVYYCQSSVTFGQGTKVEIKR
notes: IgG1 format
For B1, the binding result in the assay with human CCR6, with mouse CCR6, with human CCR5, in the assay with cyno CXCR3, in the assay with human CCR4 and in the assay with human CCR3 was “no binding (tested: 200 nM MAB mixed 1:1 with cells)” throughout.

B2: MSM-R735 (fully human anti-human CCR7 antibody, IgG1) (antibody)
heavy: not shown
light: EIVLTQSPGTLSLSPGERATLSCRASQSVSSSYLAWYQQKPGQAPRLLIYGASSRATGIPDRFSGSGSGTDFTLTISRLEPEDFAVYYCQQGSPVTFGQGTKVEIKRTVAAPSVFIFPPSDEQLKSGTASVVCLLNNFYPREAKVQWKVDNALQSGNSQESVTEQDSKDSTYSLSSTLTLSKADYEKHKVYACEVTHQGLSSPVTKSFNRGEC
notes: IgG1 format; also called R735 Human IgG1
For the molecule B2, the binding result with human CCR6, with mouse CCR6, in the assay with human CCR5, with cyno CXCR3, in the assay with human CCR4 and with human CCR3 was “no binding (tested: 200 nM MAB mixed 1:1 with cells)” in each case.
